This passage reports abundance fitness results from the Human Domainome abundance scans (Beltran et al. 2025).

± gives the uncertainty stated by the source.

B1: Tripartite motif-containing protein 49C, residues 87 to 133; numbered along this chain, P0CI26 (parent)
chain: SSEEQMCGTHRETKKIFCEVDRSLLCLLCSSSQEHRYHRHRPIEWAA

This data set covers variants of B1. Briefly: abundance fitness (aPCA) (normalised: wild type 0, dead -1); higher = more abundant; growth selection in yeast, the domain comes from the species named. As to conditions: Homo sapiens.
As for SSEEQMCGTHREYKKIFCEVDRSLLCLLCSSSQEHRYHRHRPIEWAA, the abundance fitness was -0.277 ± 0.17.
With SSEEQMCGTHRESKKIFCEVDRSLLCLLCSSSQEHRYHRHRPIEWAA, the abundance fitness is -0.081 ± 0.086.
On to SSTEQMCGTHRETKKIFCEVDRSLLCLLCSSSQEHRYHRHRPIEWAA, for which the abundance fitness is -0.487 ± 0.18.
Under SSMEQMCGTHRETKKIFCEVDRSLLCLLCSSSQEHRYHRHRPIEWAA stands -0.275 ± 0.12.
Then SSEEQMCGTHRETKKIFCEVDRSLLCLLCMSSQEHRYHRHRPIEWAA, with -0.176 ± 0.18; and SSEEQMCGTHRETKKIFCEVDRSLLCLLCRSSQEHRYHRHRPIEWAA, with -0.697 ± 0.1.
Under SSEEQMCGTHRETKKIFCEVDRSLLCLLCGSSQEHRYHRHRPIEWAA stands -0.319 ± 0.097; under SSEEQMCGTHRETKKIFCEVDRSLLCLLCSSSQEHRYHRTRPIEWAA, -0.849 ± 0.14.
Consider SSEEQMCGTHRETKKIFCEVDRSLLCLLCSSSQEHRYHRNRPIEWAA, for which the abundance fitness was -1.27 ± 0.4.
Under SSEEQMCGTHRETKKIFCEVDRSLLCLLCSSSQEHRYHRYRPIEWAA stands -0.888 ± 0.16; under SSEEQMCGTHRETKKIFCEVDRSLLCLLCSSSQEHRYHRVRPIEWAA, -0.439 ± 0.098.
Under SSEERMCGTHRETKKIFCEVDRSLLCLLCSSSQEHRYHRHRPIEWAA stands -0.097 ± 0.082.
SSEEMMCGTHRETKKIFCEVDRSLLCLLCSSSQEHRYHRHRPIEWAA: the abundance fitness was determined as 0.054 ± 0.12.
Under SSEEQMCGTHRETKKIFCEVYRSLLCLLCSSSQEHRYHRHRPIEWAA stands -0.084 ± 0.19.
Consider SSEEQMCGTHRETKKIFCEVMRSLLCLLCSSSQEHRYHRHRPIEWAA, for which the abundance fitness is -0.604 ± 0.14.
Under SSEEQMCGTHRETKKIFCEVPRSLLCLLCSSSQEHRYHRHRPIEWAA stands -1.02 ± 0.17; under SSEEQMCGTHRETKKIFCEVTRSLLCLLCSSSQEHRYHRHRPIEWAA, 0.061 ± 0.11; under SSEEQMCGTHRETKKIFCEVRRSLLCLLCSSSQEHRYHRHRPIEWAA, -0.152 ± 0.083.
Under SSEEQMCGTHRETKKIFCEVDRSLLCLLCSSSQEKRYHRHRPIEWAA stands -0.929 ± 0.21; under SSEEQMCGTHRETKKIFCEVDRSLLCLLCSSSQERRYHRHRPIEWAA, -0.799 ± 0.099.
Regarding SSEEQMCGTHRETKKIFSEVDRSLLCLLCSSSQEHRYHRHRPIEWAA, the abundance fitness was -0.327 ± 0.11.
Under SSEEQMCGTHRETKKIFCEVDRSLLCLLCSSSVEHRYHRHRPIEWAA stands 0.01 ± 0.11.
Then SSEEQMCGTHRETKKIFCEVDRSLLCLLCSSSQEHRYHCHRPIEWAA, with -0.375 ± 0.11; and SSEEQMCGTHRETKKIFCEVDRSLLCLLCSSSQEHRYHMHRPIEWAA, with -0.155 ± 0.1.
Regarding SSEEQMCGTHRETKKIFCEVDRSLLCLLCSSSQEHRYHQHRPIEWAA, the abundance fitness was 0.045 ± 0.1.
Under SSEEQMCGTHRETKKIFCEVDRSLLCLLCSSSQEHRYHYHRPIEWAA stands -0.328 ± 0.22.
Then SSEEQMCGTHRETKKIFCEVDRSLLCLLCSSSQEHRYHGHRPIEWAA, with -0.253 ± 0.072; and SSEEQMCGTHRETKKIFCEVDRSLLCLLCSSSQEHRYHRHRPIEWKA, with -0.368 ± 0.16; and SSEEQMCGTHRETKKIFCEVDRSLLCLLCSSSQEHRYHRHRPIEWQA, with -0.085 ± 0.14.
Under SSEEQMCGTHRETKKIFCEVDRSLLCLLCSSSQEHRYHRHRPIEWRA stands -0.249 ± 0.083; under SSEEQMCGTHRETKKISCEVDRSLLCLLCSSSQEHRYHRHRPIEWAA, -0.755 ± 0.11.
Take SSEEQMCGTHRETKKIHCEVDRSLLCLLCSSSQEHRYHRHRPIEWAA: the abundance fitness is -0.598 ± 0.18.
Then SSEEQMCYTHRETKKIFCEVDRSLLCLLCSSSQEHRYHRHRPIEWAA, with -0.082 ± 0.15; and SSEEQMCHTHRETKKIFCEVDRSLLCLLCSSSQEHRYHRHRPIEWAA, with -0.468 ± 0.16.
On to SSEEQMCGTIRETKKIFCEVDRSLLCLLCSSSQEHRYHRHRPIEWAA, for which the abundance fitness was -1 ± 0.26.
Take SSEEQMCGTMRETKKIFCEVDRSLLCLLCSSSQEHRYHRHRPIEWAA: the abundance fitness was -1.06 ± 0.18.
Under SSEEQMCGTHRETKKIFCEVDRSLLCLPCSSSQEHRYHRHRPIEWAA stands -0.095 ± 0.14.
SSEEQMCGTHRETKKIFCEVDRSLLCLRCSSSQEHRYHRHRPIEWAA: the abundance fitness is -0.068 ± 0.089.
Under SSEEQMCGTHRETKKIFCEVDRSLLCLCCSSSQEHRYHRHRPIEWAA stands -0.389 ± 0.16.
Then SNEEQMCGTHRETKKIFCEVDRSLLCLLCSSSQEHRYHRHRPIEWAA, with -0.538 ± 0.17; and SSEEQMCGTHRETKKIFCEVDRSLLCLLCSSLQEHRYHRHRPIEWAA, with -0.313 ± 0.1; and SSEEQMCGTHRETKKIFCEVDRSLLCLLCSSMQEHRYHRHRPIEWAA, with -0.141 ± 0.11.
Under SSEEQMCGTHRFTKKIFCEVDRSLLCLLCSSSQEHRYHRHRPIEWAA stands -0.035 ± 0.12; under SSEEQMCGTHRATKKIFCEVDRSLLCLLCSSSQEHRYHRHRPIEWAA, 0.113 ± 0.09.
For SSEEQMCGTHRVTKKIFCEVDRSLLCLLCSSSQEHRYHRHRPIEWAA, the abundance fitness is -0.072 ± 0.088.
In the case of SSEEQMCGTHPETKKIFCEVDRSLLCLLCSSSQEHRYHRHRPIEWAA, the abundance fitness is -0.441 ± 0.13.
For SSEEQMCGTHIETKKIFCEVDRSLLCLLCSSSQEHRYHRHRPIEWAA, the abundance fitness was -0.398 ± 0.23.
As to SSEEQMCGTHMETKKIFCEVDRSLLCLLCSSSQEHRYHRHRPIEWAA, the abundance fitness was -0.48 ± 0.15.
For SSEEQMCGTHRETKKIFCEVDRSLLCLLCSSSQEHRHHRHRPIEWAA, the abundance fitness was found to be 0.181 ± 0.08.
As for SSEEQMCGTHRETKKIFCEVDRSLLCLLCSSSQEHRVHRHRPIEWAA, the abundance fitness was -0.243 ± 0.091.
Then SSEEQMCGTHRETKKIFCEVDRSLLCLLCSSSQRHRYHRHRPIEWAA, with -0.557 ± 0.091; and SSEEQMCGTHRETKKIFCEVDRSLLCLLCSSSQCHRYHRHRPIEWAA, with -0.514 ± 0.17.
With SSEEQMCGTHRETKKIFCEVDRSLLCLLCSSSQVHRYHRHRPIEWAA, the abundance fitness is -0.492 ± 0.09.
For the variant SSEEQMCGTHRETKKIFCETDRSLLCLLCSSSQEHRYHRHRPIEWAA, the abundance fitness was -0.067 ± 0.08.
SSEEQMCGTHRETKKIFCENDRSLLCLLCSSSQEHRYHRHRPIEWAA: the abundance fitness was -0.014 ± 0.082.
